Results reported in patent US20240207432A1 (BIOSION, published 2024).
Residue numbers refer to the chain shown, from its start. Like-named read-outs stand apart in the source and are kept apart here.

Experiments:
[1] = biological target: T1, human TROP2-his protein (human, UniProt P09758 27-274); assay: SPR Biacore T200, supernatant antibody captured on anti-human IgG CM5 chip, 40 nM human TROP2-his
T1 construct: Biotin-labelled in the ELISAs, unlabelled analyte in Biacore; also called biotin-labeled human TROP2-his protein; biotin human Trop2-his
T1 sequence: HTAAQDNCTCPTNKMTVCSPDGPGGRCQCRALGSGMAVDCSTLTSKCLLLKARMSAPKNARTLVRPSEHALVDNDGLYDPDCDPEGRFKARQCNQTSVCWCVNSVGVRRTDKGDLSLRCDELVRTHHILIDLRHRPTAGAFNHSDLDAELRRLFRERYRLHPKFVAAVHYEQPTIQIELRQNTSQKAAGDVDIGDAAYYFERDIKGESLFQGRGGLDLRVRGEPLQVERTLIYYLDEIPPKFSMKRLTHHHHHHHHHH
Method: The goat anti-human IgG (GE healthcare, Cat #BR100839, Human Antibody Capture Kit) was covalently linked to a CM5 chip instead of goat anti-mouse IgG. […] The human TROP2-his protein at the concentration of 40 nM was used instead of serially diluted human TROP2-his protein.

[2] = biological target: T2, full length human TROP2 on 293F-TROP2 cells (human, UniProt P09758 27-323); assay: FACS on 293F-TROP2 cells, MFI
T2 construct: also called 293F-TROP2 cells (clone ID #3A8); cell surface TROP2
T2 sequence: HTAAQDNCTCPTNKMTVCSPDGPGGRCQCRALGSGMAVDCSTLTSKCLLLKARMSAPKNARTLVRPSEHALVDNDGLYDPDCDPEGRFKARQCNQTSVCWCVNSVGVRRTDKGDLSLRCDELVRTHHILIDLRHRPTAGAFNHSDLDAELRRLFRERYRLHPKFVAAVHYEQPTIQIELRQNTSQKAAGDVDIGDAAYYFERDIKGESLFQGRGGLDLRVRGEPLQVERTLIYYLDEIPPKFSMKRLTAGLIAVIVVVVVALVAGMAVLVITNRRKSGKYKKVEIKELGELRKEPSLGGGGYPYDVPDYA

[3] = biological target: T3, cynomolgus TROP2-his protein (cynomolgus monkey, UniProt P09758 27-272 (human entry), limits assumed); assay: indirect ELISA, cynomolgus TROP2-his coated, OD(450-630)
T3 construct: no cleavage site is stated; also called Cynomolgus monkey TROP2-his protein; monkey TROP2
T3 chain: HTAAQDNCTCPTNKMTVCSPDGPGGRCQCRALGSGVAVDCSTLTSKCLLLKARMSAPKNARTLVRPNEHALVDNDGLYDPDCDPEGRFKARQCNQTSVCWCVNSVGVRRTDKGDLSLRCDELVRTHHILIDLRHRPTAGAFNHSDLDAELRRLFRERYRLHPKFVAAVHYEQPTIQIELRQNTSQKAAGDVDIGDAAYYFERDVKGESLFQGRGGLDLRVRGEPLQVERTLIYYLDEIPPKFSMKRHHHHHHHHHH

[4] = biological target: T1, human TROP2-his protein; assay: SPR Biacore, antibody captured on anti-human IgG CM5 chip, TROP2-his analyte
Method: (§1) Un-reacted moieties on the chip (biosensor) surface were blocked with ethanolamine. […] The antigen-antibody association kinetics was followed for 2 minutes and the dissociation kinetics was followed for 10 minutes. The association and dissociation curves were fit to a 1:1 Langmuir binding model using BIAcore evaluation software.

[5] = biological target: T1, human TROP2-his protein; assay: capture ELISA, antibody captured on anti-human IgG Fc coat, biotin human TROP2-his in solution, OD(450-630)
Method: (§2) Plates were washed once with wash buffer (PBS+0.05% v/v Tween-20, PBST) and then blocked with 200 μl/well blocking buffer (5% w/v non-fatty milk in PBST) for 2 hours at 37° C. […] Plates containing captured anti-TROP2 antibodies were incubated with biotin-labeled human TROP2-his protein (prepared in house, SEQ ID NO: 67, 56.7 ng/mL in 2.5% w/v non-fatty milk in PBST, 100 μl/well) for 40 minutes at 37° C., washed 4 times, and incubated with streptavidin conjugated HRP (1:10000 dilution in PBST, Jackson Immuno Research, Cat #016-030-084, 100 μl/well) for 40 minutes at 37° C. After a final wash, plates were incubated with 100 μl/well ELISA substrate TMB (Innoreagents, Cat #TMB-S-002) at room temperature. The reaction was stopped in 3-10 minutes at room temperature with 50 μl/well 1M H₂SO₄, and the absorbance of each well was read on a microplate reader using dual wavelength mode with 450 nm for TMB and 630 nm as the reference wavelength. The OD (450-630) values were plotted against antibody concentration. Data was analyzed using Graphpad Prism software and EC₅₀ values were reported.
For the capture ELISA, AffiniPure Goat Anti-Human IgG, Fcγ fragment specific (Jackson Immuno Research, Cat #109-005-098) was used instead of AffiniPure Goat Anti-Mouse IgG, Fcγ fragment specific, 100 μl/well.

[6] = biological target: T2, full length human TROP2 on 293F-TROP2 …; assay: FACS on 293F-TROP2 cells, MFI; remark: listed apart in the source
Method: The 293F-TROP2 cells were harvested from cell culture flasks, washed twice and re-suspended in phosphate buffered saline (PBS) containing 2% v/v Fetal Bovine Serum (FACS buffer). […] Following an incubation of 40 minutes at 4° C. in dark, cells were washed twice and re-suspended in FACS buffer. Fluorescence was measured using a Becton Dickinson FACS Canto II-HTS equipment, and the MFI (mean fluorescence intensity) was plotted against antibody concentration. Data was analyzed using Graphpad Prism software and EC₅₀ values were reported.

[7] = biological target: T3, cynomolgus TROP2-his protein; assay: indirect ELISA, cynomolgus TROP2-his coated, OD(450-630)
[8] = biological target: T3, cynomolgus TROP2-his protein; assay: SPR Biacore, antibody captured on anti-human IgG CM5 chip, TROP2-his analyte
Method: as §1

[9] = biological target: T1, human TROP2-his protein; assay: as above; remark: listed apart in the source
Method: as §1

[10] = biological target: T3, cynomolgus TROP2-his protein; assay: as above
Method: as §1

[11] = biological target: T1, human TROP2-his protein; assay: capture ELISA, antibody captured on anti-human IgG Fc coat, biotin human TROP2-his in solution, OD(450-630); remark: listed apart in the source
Method: as §2
For the Capture ELISA, AffiniPure F(ab′)₂ Fragment Goat Anti-Human IgG, Fcγ fragment specific (Jackson Immunoresearch, Cat #109-006-008) was used instead of AffiniPure Goat Anti-Mouse IgG, Fcγ fragment specific, 100 μl/well.

[12] = biological target: T1, human TROP2-his protein; assay: competitive ELISA: BM1 coated, antibody premixed with biotin human TROP2-his; blocked: binding of TROP2-his to coated BM1; partial only: OD falls from about 1.9 to a plateau of about 1.3

B1: huA1E4F7D4-V15 (antibody, human IgG1, kappa, V domains shown)
VH: QVQLVQSGAEVKKPGASVKVSCKASGYSFTTHWIHWVRQAPGQGLEWIGTIFPSNAYAVYNQKFRDRATMTRDRSISTAYIELSRLRSDDTAVYYCARASYFDYWGQGTTVTVSS
VL: EIVLTQSPATLSLSPGERATLSCRASQNIGTSIHWFQQKPGGAPRLLIKYASESISGIPSRFSGSGSGTDFTLTISSLEPEDFAVYYCQHSHSWPFTFGQGTKLEIKR
notes: Positions of the X residues are given in the claims; Tested as cell supernatant
- Kd [1]: 359 pM
- koff [1]: 0.000205 s⁻¹
- kon [1]: 571000 M⁻¹ s⁻¹

B2: huA1E4F7D4-V21 (antibody, human IgG1, kappa, V domains shown)
VH: B1 VH with R72A, R74T
VL: B1 VL with A43S, K49Y
notes: as for B1
- Kd [1]: 188 pM
- koff [1]: 0.000271 s⁻¹
- kon [1]: 1.44e+06 M⁻¹ s⁻¹

B3: huA1E4F7D4-V17 (antibody, human IgG1, kappa, V domains shown)
VH: B1 VH with R72A
VL: B1 VL with A43S, K49Y
notes: as for B1
- Kd [1]: 232 pM
- koff [1]: 0.000279 s⁻¹
- kon [1]: 1.2e+06 M⁻¹ s⁻¹

B4: huA1E4F7D4-V20 (antibody, human IgG1, kappa, V domains shown)
VH: B1 VH
VL: B1 VL with A43S, K49Y
notes: as for B1
- Kd [1]: 335 pM
- koff [1]: 0.00029 s⁻¹
- kon [1]: 868000 M⁻¹ s⁻¹

B5: huA1E4F7D4-V18 (antibody, human IgG1, kappa, V domains shown)
VH: B1 VH with S28T, R72A
VL: B1 VL with A43S, K49Y
notes: as for B1
- Kd [1]: 230 pM
- koff [1]: 0.00028 s⁻¹
- kon [1]: 1.22e+06 M⁻¹ s⁻¹

B6: huA1E4F7D4-V19 (antibody, human IgG1, kappa, V domains shown)
VH: B1 VH with A68V, R72A
VL: B1 VL with A43S, K49Y
notes: as for B1
- Kd [1]: 261 pM
- koff [1]: 0.000304 s⁻¹
- kon [1]: 1.16e+06 M⁻¹ s⁻¹

B7: chimeric C1B3B12D2 (antibody, human IgG1, kappa, V domains shown)
VH: QVQLQQSGPELVRPGTSVKMSCKAAGYTFTKFWIGWVKQRPGHGLEWIGNIYPGGAYINYNENFKGKATLTADTFSSTAYMQLNSLTSADSAIYYCAREGSSGYWGQGTTLTVSS
VL: DIVMTQSPSSLTVTAGEKVTLSCKCSQSLLNSGTQENYLTWYQQKPGQPPKMLIYWASIREPGVPDRFTGSGSGTDFTLTINNVQAEDLAVYYCQHDYSYPFTFGSGTKLEIKR
- EC50 [2]: 810 pM
- EC50 [3]: 260 pM
- Kd [4]: 125 pM
- koff [4]: 9.54e-05 s⁻¹
- kon [4]: 763000 M⁻¹ s⁻¹
- EC50 [5]: 111 pM

B8: chimeric A1E4F7D4 (antibody, human IgG1, kappa, V domains shown)
VH: QVQLQQSGAELAKPGTSVKMSCEASGYSFTTHWIHWMKQRPGQGLEWIGTIFPSNAYAVYNQKFRDRAIMTADRSSTTAYIQLTGLTSEDSAVYYCARASYFDYWGQGTTLTVSS
VL: DILLTQSPATLSVSPGERVTFSCRASQNIGTSIHWFQQRTTGSPRLLIKYASESISGIPSRFSGSGSGTDFTLHINSVESEDIAHYYCQHSHSWPFTFGSGTKLEIQR
notes: also called chimeric antibody A1E4F7D4
- EC50 [2]: 360 pM
- EC50 [6]: 575 pM
- EC50 [7]: 967 pM
- EC50 [3]: 237 pM
- Kd [4]: 32.6 pM
- koff [4]: 3.13e-05 s⁻¹
- kon [4]: 961000 M⁻¹ s⁻¹
- Kd [8]: 247 pM
- koff [8]: 0.000171 s⁻¹
- kon [8]: 692000 M⁻¹ s⁻¹
- Kd [9]: 185 pM
- koff [9]: 0.000194 s⁻¹
- kon [9]: 1.05e+06 M⁻¹ s⁻¹
- Kd [10]: 134 pM
- koff [10]: 0.000163 s⁻¹
- kon [10]: 1.22e+06 M⁻¹ s⁻¹
- EC50 [5]: 97.9 pM
- EC50 [11]: 73.2 pM
- IC50 [12]: 447 pM
